According to article PMC10054023, “Fabrication of Rapid Electrical Pulse-Based Biosensor Consisting of Truncated DNA Aptamer for Zika Virus Envelope Protein Detection in Clinical Samples”:

Experiments:
[1] = biological target: T1, Zika virus envelope protein (Zika virus, UniProt A0A024B7W1 291-694); assay: bead-based fluorescence binding assay; protein on magnetic beads; Bead assay: room temperature, 1 h, envelope protein 0.15 mg/mL on magnetic beads, aptamer 3 nM-1 uM, DIW wash; binding buffer not stated (folding predicted at 140 mM Na+, 5 mM Mg2+). Sensor: ACEF 10 min, read in 1 M KCl pH 7.; conditions: protein: commercial; label: 5' 6-FAM; stem-loops (mfold prediction)
myoglobin = myoglobin (horse, UniProt P68082 2-154); assay: pulse voltammetry biosensor; no significant reactivity; Bead assay: room temperature, 1 h, envelope protein 0.15 mg/mL on magnetic beads, aptamer 3 nM-1 uM, DIW wash; binding buffer not stated (folding predicted at 140 mM Na+, 5 mM Mg2+). Sensor: ACEF 10 min, read in 1 M KCl pH 7.; conditions: protein: commercial; stem-loops (mfold prediction)
Sequence of myoglobin (P68082 2-154): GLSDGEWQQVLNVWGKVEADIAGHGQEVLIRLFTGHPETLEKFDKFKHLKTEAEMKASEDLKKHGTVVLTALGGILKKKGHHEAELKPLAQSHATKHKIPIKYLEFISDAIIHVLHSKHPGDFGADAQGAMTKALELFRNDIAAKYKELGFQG

hemoglobin = hemoglobin (horse, UniProt P01958;P02062 2-142;1-146); assay: as above; conditions: protein: commercial; chain copies: 2;2; stem-loops (mfold prediction)
Sequence of hemoglobin (P01958 2-142, chain 1 of 2): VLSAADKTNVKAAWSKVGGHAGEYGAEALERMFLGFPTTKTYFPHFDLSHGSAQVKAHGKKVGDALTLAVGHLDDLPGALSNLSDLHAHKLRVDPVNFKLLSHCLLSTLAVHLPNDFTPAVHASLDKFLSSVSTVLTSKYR
Sequence of hemoglobin (P02062 whole entry, chain 2 of 2): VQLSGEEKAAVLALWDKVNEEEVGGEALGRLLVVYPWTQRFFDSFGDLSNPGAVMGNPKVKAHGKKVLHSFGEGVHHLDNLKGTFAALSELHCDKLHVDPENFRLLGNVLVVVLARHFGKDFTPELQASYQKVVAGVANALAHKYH

fibrinogen = fibrinogen (UniProt P02671;P02675;P02679 20-629;31-491;27-453); assay: as above; conditions: protein: commercial; chain copies: 2;2;2; stem-loops (mfold prediction)
Sequence of fibrinogen (P02671 20-629, chain 1 of 3): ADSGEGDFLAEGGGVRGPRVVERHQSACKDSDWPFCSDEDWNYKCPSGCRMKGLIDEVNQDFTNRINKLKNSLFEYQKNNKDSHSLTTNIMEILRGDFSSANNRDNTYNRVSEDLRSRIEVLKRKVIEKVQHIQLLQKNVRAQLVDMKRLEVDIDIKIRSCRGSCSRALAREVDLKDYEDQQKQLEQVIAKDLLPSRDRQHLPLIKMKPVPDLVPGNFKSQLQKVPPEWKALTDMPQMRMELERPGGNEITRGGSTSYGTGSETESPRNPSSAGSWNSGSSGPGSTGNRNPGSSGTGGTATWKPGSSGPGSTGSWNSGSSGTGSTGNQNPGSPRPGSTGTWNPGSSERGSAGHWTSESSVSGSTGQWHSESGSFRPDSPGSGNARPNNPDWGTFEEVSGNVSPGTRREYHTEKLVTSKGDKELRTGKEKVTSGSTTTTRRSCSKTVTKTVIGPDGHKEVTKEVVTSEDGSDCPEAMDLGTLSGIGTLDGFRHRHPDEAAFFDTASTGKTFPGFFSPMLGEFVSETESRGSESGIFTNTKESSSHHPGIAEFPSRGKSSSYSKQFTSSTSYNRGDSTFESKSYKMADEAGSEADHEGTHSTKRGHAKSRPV
Sequence of fibrinogen (P02675 31-491, chain 2 of 3): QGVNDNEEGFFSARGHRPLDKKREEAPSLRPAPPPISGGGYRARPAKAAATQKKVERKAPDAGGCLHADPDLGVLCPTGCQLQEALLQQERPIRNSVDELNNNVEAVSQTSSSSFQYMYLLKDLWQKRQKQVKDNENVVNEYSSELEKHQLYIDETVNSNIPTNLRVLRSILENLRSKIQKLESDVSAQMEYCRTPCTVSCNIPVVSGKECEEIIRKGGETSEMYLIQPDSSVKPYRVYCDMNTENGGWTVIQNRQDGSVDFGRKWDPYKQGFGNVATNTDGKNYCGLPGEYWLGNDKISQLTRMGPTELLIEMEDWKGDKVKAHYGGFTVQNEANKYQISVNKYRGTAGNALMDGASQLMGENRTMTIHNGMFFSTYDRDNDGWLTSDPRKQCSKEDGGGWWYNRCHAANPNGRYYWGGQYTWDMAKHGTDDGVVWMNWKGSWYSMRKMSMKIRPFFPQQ
Sequence of fibrinogen (P02679 27-453, chain 3 of 3): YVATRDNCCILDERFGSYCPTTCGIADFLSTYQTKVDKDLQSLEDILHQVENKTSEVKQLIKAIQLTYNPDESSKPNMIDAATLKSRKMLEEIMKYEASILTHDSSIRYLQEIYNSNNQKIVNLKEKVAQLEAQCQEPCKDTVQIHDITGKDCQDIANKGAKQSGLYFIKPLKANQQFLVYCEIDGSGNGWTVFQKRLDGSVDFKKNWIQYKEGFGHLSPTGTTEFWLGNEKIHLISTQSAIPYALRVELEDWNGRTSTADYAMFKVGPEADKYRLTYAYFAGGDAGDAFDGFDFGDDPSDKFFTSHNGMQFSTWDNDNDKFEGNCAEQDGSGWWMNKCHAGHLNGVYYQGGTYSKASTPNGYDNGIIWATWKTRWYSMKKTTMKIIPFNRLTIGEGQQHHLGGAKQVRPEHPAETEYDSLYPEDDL

[2] = biological target: T1, Zika virus envelope protein; assay: pulse voltammetry biosensor; ACEF; read in 1 M KCl pH 7; LOD 90.1 pM; Bead assay: room temperature, 1 h, envelope protein 0.15 mg/mL on magnetic beads, aptamer 3 nM-1 uM, DIW wash; binding buffer not stated (folding predicted at 140 mM Na+, 5 mM Mg2+). Sensor: ACEF 10 min, read in 1 M KCl pH 7.; conditions: protein: commercial; stem-loops (mfold prediction)
[3] = biological target: T1, Zika virus envelope protein; assay: EMSA (8% TBE-PAGE); Kd slightly lower than truncated aptamer, value not given; […], aptamer 3 nM-1 uM, […]; binding buffer not stated ([…], read in 1 M KCl pH 7.; conditions: protein: commercial; stem-loops (mfold prediction)

Binder: TGCGCACTGAACGATCCTGCGTCAAGTTCAAGGTTGTG (structured_DNA) [truncated Zika aptamer (T-ZV apt), 5'-FAM]
- Kd [1]: 333 ± 60.3 nM

Binder: TGCGCACTGAACGATCCTGCGTCAAGTTCAAGGTTGTG (structured_DNA, thiol (SH), end not stated) [truncated Zika aptamer (T-ZV apt), thiolated]
- binding result (myoglobin): no binding
- binding result (hemoglobin): no binding
- binding result (fibrinogen): no binding
- binding result [2]: binds

B1: original Zika envelope aptamer (ZV apt) (structured_DNA)
DNA: TGACACCGTACCTGCTCTAGTGCGCACTGAACGATCCTGCGTCAAGTTCAAGGTTGTGAAGCACGCCAAGGGACTAT
- binding result [3]: binds
